Measured values published in patent US7273727B2, “Fusion proteins for prodrug activation” (Behrinwerke Aktiengesellschaft, priority 1992, dated 2007).

B1: sFv-huβGluc: sFv 431/26 human β-glucuronidase fusion protein expressed in yeast (Example 9), highly mannosylated (protein)
chain: QVQLQESGPGLVRPSQTLSLTCTVSGFTISSGYSWHWVRQPPGRGLEWIGYIQYSGITNYNPSLKSRVTMLVDTSKNQFSLRLSSVTAADTAVYYCAREDYDYHWYFDVWGQGTTVTVSSGGGGSGGGGSGGGGSDIQLTQSPSSLSASVGDRVTITCSTSSSVSYMHWYQQKPGKAPKLLIYSTSNLASGVPSRFSGSGSGTDFTFTISSLQPEDIATYYCHQWSSYPTFGQGTKLEIKELKTPLGDTTHTCPRCPAAAAVQGGMLYPQESPSRECKELDGLWSFRADFSDNRRRGFEEQWYRRPLWESGPTVDMPVPSSFNDISQDWRLRHFVGWVWYEREVILPERWTQDLRTRVVLRIGSAHSYAIVWVNGVDTLEHEGGYLPFEADISNLVQVGPLPSRLRITIAINNTLTPTTLPPGTIQYLTDTSKYPKGYFVQNTYFDFFNYAGLQRSVLLYTTPTTYIDDITVTTSVEQDSGLVNYQISVKGSNLFKLEVRLLDAENKVVANGTGTQGQLKVPGVSLWWPYLMHERPAYLYSLEVQLTAQTSLGPVSDFYTLPVGIRTVAVTKSQFLINGKPFYFHGVNKHEDADIRGKGFDWPLLVKDFNLLRWLGANAFRTSHYPYAEEVMQMCDRYGIVVIDECPGVGLALPQFFNNVSLHHHMQVMEEVVRRDKNHPAVVMWSVANEPASHLESAGYYLKMVIAHTKSLDPSRPVTFVSNSNYAADKGAPYVDVICLNSYYSWYHDYGHLELIQLQLATQFENWYKKYQKPIIQSEYGAETIAGFHQDPPLMFTEEYQKSLLEQYHLGLDQKRRKYVVGELIWNFADFMTEQSPTRVLGNKKGIFTRQRQPKSAAFLLRERYWKIANETRYPHSVAKSQCLENSPFT
B2: sFv-huβ-Gluc: humanized sFv fragment against CEA (from MAb BW 431/26) linked via hinge to human β-glucuronidase; SEQ ID NO:2 (protein)
chain: MGWSCIILFLVATATGVHSQVQLQESGPGLVRPSQTLSLTCTVSGFTISSGYSWHWVRQPPGRGLEWIGYIQYSGITNYNPSLKSRVTMLVDTSKNQFSLRLSSVTAADTAVYYCAREDYDYHWYFDVWGQGTTVTVSSGGGGSGGGGSGGGGSDIQLTQSPSSLSASVGDRVTITCSTSSSVSYMHWYQQKPGKAPKLLIYSTSNLASGVPSRFSGSGSGTDFTFTISSLQPEDIATYYCHQWSSYPTFGQGTKLEIKELKTPLGDTTHTCPRCPAAAAVQGGMLYPQESPSRECKELDGLWSFRADFSDNRRRGFEEQWYRRPLWESGPTVDMPVPSSFNDISQDWRLRHFVGWVWYEREVILPERWTQDLRTRVVLRIGSAHSYAIVWVNGVDTLEHEGGYLPFEADISNLVQVGPLPSRLRITIAINNTLTPTTLPPGTIQYLTDTSKYPKGYFVQNTYFDFFNYAGLQRSVLLYTTPTTYIDDITVTTSVEQDSGLVNYQISVKGSNLFKLEVRLLDAENKVVANGTGTQGQLKVPGVSLWWPYLMHERPAYLYSLEVQLTAQTSLGPVSDFYTLPVGIRTVAVTKSQFLINGKPFYFHGVNKHEDADIRGKGFDWPLLVKDFNLLRWLGANAFRTSHYPYAEEVMQMCDRYGIVVIDECPGVGLALPQFFNNVSLHHHMQVMEEVVRRDKNHPAVVMWSVANEPASHLESAGYYLKMVIAHTKSLDPSRPVTFVSNSNYAADKGAPYVDVICLNSYYSWYHDYGHLELIQLQLATQFENWYKKYQKPIIQSEYGAETIAGFHQDPPLMFTEEYQKSLLEQYHLGLDQKRRKYVVGELIWNFADFMTEQSPTRVLGNKKGIFTRQRQPKSAAFLLRERYWKIANETRYPHSVAKSQCLENSPFT

What was measured:
[1] = Analysis of the monosaccharide components in the carbohydrate content (HPAE-PAD after hydrolysis); type: physicochemical
Procedure: Neuraminic acid was determined by the method of Hermentin and Seidat (1991) GBF Monographs Volume 15, pp. 185-188 (after hydrolysis for 30 min in the presence of 0.1 N sulfuric acid at 80° C. and subsequent neutralization with 0.4 N sodium hydroxide solution) by high-pH anion exchange chomatography with pulsed amerometric detection (HPAE-PAD).
The monosaccaride components were determined (after hydrolysis for 4 h in the presence of 2 N trifluoracetic acid at 100° C. and evaporation to dryness in a SpeedVac) likewise by HPAE-PAD in a […] of the method described by Hardy et al. (1988) Analytical Biochemistry 170, pp. 54-62.

CEA = assay: Specificity enzyme activity test, plates coated with CEA; type: biochemical
Description: (§1) The ability of the sFv-huβ-Gluc fusion protein to bind specifically to the CEA epitope defined by 431/26 and simultaneously to exert the enzymatic activity of human β-glucuronidase was shown in a specificity enzyme activity test (EP-A2-0 501 215). The test determines the liberation of 4-methylumbelliferone from 4-methylumbelliferyl β-glucuronide by the β-glucuronidase portion of the fusion protein after the fusion protein has been bound via the sFv portion to an antigen. The measured fluorescence values are reported as relative fluorescence units (FU).

[2] = tested on: PEM (polymorphic epithelial mucin); assay: Specificity enzyme activity test, control plates coated with PEM; type: biochemical
Description: as §1

[3] = Injection of prodrug after injection of fusion protein, side effects; type: in vivo; details: prodrug injected 3 days after injection of the fusion protein; data not shown
Description: This rapid internalization mechanism, which is mainly mediated by galactose and mannose, is closely involved in the advantageous phannacokinetics of the fusion protein according to the invention. These advantageous pharmacokinetics of the fusion protein to which galactose and, in particular, mannose are attached makes it possible for a hydrophilic prodrug which undergoes extracellular distribution to be administered i.v. at a relatively early time without eliciting non-specific prodrug activation. In this case an elimination step as described by Sharma et al. (Brit. J. Cancer, 61, 659, 1990) is unnecessary.

[4] = fusion protein from Saccharomyces cerevisiae
[5] = fusion protein expressed by BHK cells
[6] = fusion protein from BHK cells, after hydrolysis

| Molecule | Glucosamine [1, 4] [mol/mol] | Glucose [1, 4] [mol/mol] | Mannose [1, 4] [mol/mol] | antigen specificity (CEA; [5]) | β-glucuronidase activity (CEA; [5]) | liberation of methylumbelliferone from 4-methylumbelliferyl β-glucuronide (CEA; plates coated with CEA) | liberation of methylumbelliferone from 4-methylumbelliferyl β-glucuronide [2] | Fucose, molar ratio [1, 6] | Galactosamine, molar ratio [1, 6] | Galactose, molar ratio [1, 6] | Glucose, molar ratio [1, 6] | Mannose, molar ratio [1, 6] | N-Acetyl glucosamine, molar ratio [1, 6] | N-Acetyl-neuraminic acid, molar ratio [1, 6] | side effects after injection of a suitable prodrug [3] |
| --- | --- | --- | --- | --- | --- | --- | --- | --- | --- | --- | --- | --- | --- | --- | --- |
| B1 | 6 | 12 | 150 |  |  |  |  |  |  |  |  |  |  |  |  |
| B2 |  |  |  | specific for CEA | full β-glucuronidase activity | significant liberation of methyl-umbelliferone | does not liberate any methylumbelliferone | 4 mol of carbohydrate/mol of sFv-huβ-Gluc | 2 mol of carbohydrate/mol of sFv-huβ-Gluc | 8 mol of carbohydrate/mol of sFv-huβ-Gluc | 1 mol of carbohydrate/mol of sFv-huβ-Gluc | 43 mol of carbohydrate/mol of sFv-huβ-Gluc | 30 mol of carbohydrate/mol of sFv-huβ-Gluc | 4 mol of carbohydrate/mol of sFv-huβ-Gluc | without producing significant side effects |
